According to US20180125988:

System: AC1254 (CCD1-BSRS1-AE713)
Sequence (chain, as listed by the source): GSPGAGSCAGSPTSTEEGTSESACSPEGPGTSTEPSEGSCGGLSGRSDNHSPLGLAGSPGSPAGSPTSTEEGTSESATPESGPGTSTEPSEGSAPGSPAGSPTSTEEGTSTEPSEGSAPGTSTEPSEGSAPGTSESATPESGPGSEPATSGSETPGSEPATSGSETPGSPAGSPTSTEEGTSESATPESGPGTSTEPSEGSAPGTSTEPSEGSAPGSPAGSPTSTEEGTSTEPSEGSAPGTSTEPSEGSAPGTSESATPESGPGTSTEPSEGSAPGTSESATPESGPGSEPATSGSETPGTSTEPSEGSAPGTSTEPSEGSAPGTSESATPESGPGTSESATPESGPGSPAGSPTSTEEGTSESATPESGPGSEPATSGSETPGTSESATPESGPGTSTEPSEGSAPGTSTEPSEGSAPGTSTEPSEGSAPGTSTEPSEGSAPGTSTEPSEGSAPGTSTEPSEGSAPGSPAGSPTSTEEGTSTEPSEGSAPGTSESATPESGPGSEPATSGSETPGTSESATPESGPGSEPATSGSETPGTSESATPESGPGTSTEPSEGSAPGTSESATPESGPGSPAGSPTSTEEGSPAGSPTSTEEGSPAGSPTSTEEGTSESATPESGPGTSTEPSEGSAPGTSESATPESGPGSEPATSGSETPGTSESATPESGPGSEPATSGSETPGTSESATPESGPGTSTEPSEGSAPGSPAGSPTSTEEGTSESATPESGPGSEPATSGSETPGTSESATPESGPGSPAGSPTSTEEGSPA

recombinant mouse MMP-2, sequence (chain, as listed by the source): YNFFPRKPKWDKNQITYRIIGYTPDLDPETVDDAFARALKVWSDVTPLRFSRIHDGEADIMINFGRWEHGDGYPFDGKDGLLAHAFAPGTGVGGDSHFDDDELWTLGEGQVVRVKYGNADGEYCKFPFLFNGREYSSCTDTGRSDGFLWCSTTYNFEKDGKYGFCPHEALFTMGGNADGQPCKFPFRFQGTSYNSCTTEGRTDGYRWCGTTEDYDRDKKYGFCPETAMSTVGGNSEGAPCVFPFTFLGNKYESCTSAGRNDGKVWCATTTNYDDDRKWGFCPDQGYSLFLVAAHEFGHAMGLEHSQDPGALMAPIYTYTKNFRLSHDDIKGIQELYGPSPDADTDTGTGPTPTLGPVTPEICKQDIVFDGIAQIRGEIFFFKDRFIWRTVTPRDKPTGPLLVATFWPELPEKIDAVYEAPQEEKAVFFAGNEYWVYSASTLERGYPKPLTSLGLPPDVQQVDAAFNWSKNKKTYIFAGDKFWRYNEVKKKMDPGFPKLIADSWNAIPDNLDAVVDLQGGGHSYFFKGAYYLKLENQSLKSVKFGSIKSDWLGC

Substance	proteolytic cleavage at the PCM (SDS-PAGE, C4 RP-HPLC); enzyme:substrate 1:12.5, 2 h, 37 C	proteolytic cleavage at the PCM (SDS-PAGE, C4 RP-HPLC); enzyme:substrate 1:680, 2 h, 37 C
recombinant human u-plasminogen activator (uPA)	all proteases tested here cleaved the construct as intended, with varying degree of catalytic efficiency	
recombinant mouse MMP-2		all proteases tested here cleaved the construct as intended, with varying degree of catalytic efficiency
